Results on two substances are retold here after article PMC9741242, “Insights into the Structure of the Highly Glycosylated Ffase from Rhodotorula dairenensis Enhance Its Biotechnological Potential” (International Journal of Molecular Sciences, 2022).

For orientation: stoichiometry N means a count of units in the complex or per binding partner.

For test [1], the target named is D188A-RdINVΔ21–139, truncated inactivated mutant of Rhodotorula dairenensis β-fructofuranosidase (Rhodotorula dairenensis CECT 1416). The test is described as follows: crystal structure; D188A-RdINVΔ21–139, deglycosylated, complexes with fructose, sucrose or raffinose; PEG 3350, Bis-Tris pH 5.5; space group P2(1), four molecules in the asymmetric unit.
Test [2] deals with β-fructofuranosidase from Rhodotorula dairenensis (RdINV), wild type (Rhodotorula dairenensis CECT 1416). Briefly: crystal structure; wild-type RdINV, deglycosylated; 25% PEG 3350, 0.2 M ammonium acetate, 0.1 M Bis-Tris pH 5.5; space group C222(1), two molecules in the asymmetric unit.

Turning to “D188A-RdINVΔ21–139, truncated inactivated mutant of Rhodotorula dairenensis β-fructofuranosidase (enzyme)”, in test [1], the stoichiometry N was found to be 2. As to “β-fructofuranosidase from Rhodotorula dairenensis (RdINV), wild type (enzyme)”, in test [2], the stoichiometry N is 2.
